These results are taken from US20230407373A1 (priority 2020, published 2023).

The labels stand for the following.
B1: MOV10: host protein, UniProt Q9HCE1 (protein, UniProt Q9HCE1 1-1003, looked up)
Helicase MOV-10: MPSKFSCRQLREAGQCFESFLVVRGLDMETDRERLRTIYNRDFKISFGTPAPGFSSMLYGMKIANLAYVTKTRVRFFRLDRWADVRFPEKRRMKLGSDISKHHKSLLAKIFYDRAEYLHGKHGVDVEVQGPHEARDGQLLIRLDLNRKEVLTLRLRNGGTQSVTLTHLFPLCRTPQFAFYNEDQELPCPLGPGECYELHVHCKTSFVGYFPATVLWELLGPGESGSEGAGTFYIARFLAAVAHSPLAAQLKPMTPFKRTRITGNPVVTNRIEEGERPDRAKGYDLELSMALGTYYPPPRLRQLLPMLLQGTSIFTAPKEIAEIKAQLETALKWRNYEVKLRLLLHLEELQMEHDIRHYDLESVPMTWDPVDQNPRLLTLEVPGVTESRPSVLRGDHLFALLSSETHQEDPITYKGFVHKVELDRVKLSFSMSLLSRFVDGLTFKVNFTFNRQPLRVQHRALELTGRWLLWPMLFPVAPRDVPLLPSDVKLKLYDRSLESNPEQLQAMRHIVTGTTRPAPYIIFGPPGTGKTVTLVEAIKQVVKHLPKAHILACAPSNSGADLLCQRLRVHLPSSIYRLLAPSRDIRMVPEDIKPCCNWDAKKGEYVFPAKKKLQEYRVLITTLITAGRLVSAQFPIDHFTHIFIDEAGHCMEPESLVAIAGLMEVKETGDPGGQLVLAGDPRQLGPVLRSPLTQKHGLGYSLLERLLTYNSLYKKGPDGYDPQFITKLLRNYRSHPTILDIPNQLYYEGELQACADVVDRERFCRWAGLPRQGFPIIFHGVMGKDEREGNSPSFFNPEEAATVTSYLKLLLAPSSKKGKARLSPRSVGVISPYRKQVEKIRYCITKLDRELRGLDDIKDLKVGSVEEFQGQERSVILISTVRSSQSFVQLDLDFNLGFLKNPKRFNVAVTRAKALLIIVGNPLLLGHDPDWKVFLEFCKENGGYTGCPFPAKLDLQQGQNLLQGLSKLSPSTSGPHSHDYLPQEREGEGGLSLQVEPEWRNEL
B2: NONO: host protein, UniProt Q15233 (protein, UniProt Q15233 1-471, looked up)
Non-POU domain-containing …: MQSNKTFNLEKQNHTPRKHHQHHHQQQHHQQQQQQPPPPPIPANGQQASSQNEGLTIDLKNFRKPGEKTFTQRSRLFVGNLPPDITEEEMRKLFEKYGKAGEVFIHKDKGFGFIRLETRTLAEIAKVELDNMPLRGKQLRVRFACHSASLTVRNLPQYVSNELLEEAFSVFGQVERAVVIVDDRGRPSGKGIVEFSGKPAARKALDRCSEGSFLLTTFPRPVTVEPMDQLDDEEGLPEKLVIKNQQFHKEREQPPRFAQPGSFEYEYAMRWKALIEMEKQQQDQVDRNIKEAREKLEMEMEAARHEHQVMLMRQDLMRRQEELRRMEELHNQEVQKRKQLELRQEEERRRREEEMRRQQEEMMRRQQEGFKGTFPDAREQEIRMGQMAMGGAMGINNRGAMPPAPVPAGTPAPPGPATMMPDGTLGLTPPTTERFGQAATMEGIGAIGGTPPAFNRAAPGAEFAPNKRRRY
B3: DAZAP1: host protein, UniProt Q96EP5 (protein, UniProt Q96EP5 1-407, looked up)
DAZ-associated protein 1: MNNSGADEIGKLFVGGLDWSTTQETLRSYFSQYGEVVDCVIMKDKTTNQSRGFGFVKFKDPNCVGTVLASRPHTLDGRNIDPKPCTPRGMQPERTRPKEGWQKGPRSDNSKSNKIFVGGIPHNCGETELREYFKKFGVVTEVVMIYDAEKQRPRGFGFITFEDEQSVDQAVNMHFHDIMGKKVEVKRAEPRDSKSQAPGQPGASQWGSRVVPNAANGWAGQPPPTWQQGYGPQGMWVPAGQAIGGYGPPPAGRGAPPPPPPFTSYIVSTPPGGFPPPQGFPQGYGAPPQFSFGYGPPPPPPDQFAPPGVPPPPATPGAAPLAFPPPPSQAAPDMSKPPTAQPDFPYGQYAGYGQDLSGFGQGFSDPSQQPPSYGGPSVPGSGGPPAGGSGFGRGQNHNVQGFHPYRR
B4: TRA2B: host protein, UniProt P62995 (protein, UniProt P62995 2-288, looked up)
Transformer-2 protein homolog …: SDSGEQNYGERESRSASRSGSAHGSGKSARHTPARSRSKEDSRRSRSKSRSRSESRSRSRRSSRRHYTRSRSRSRSHRRSRSRSYSRDYRRRHSHSHSPMSTRRRHVGNRANPDPNCCLGVFGLSLYTTERDLREVFSKYGPIADVSIVYDQQSRRSRGFAFVYFENVDDAKEAKERANGMELDGRRIRVDFSITKRPHTPTPGIYMGRPTYGSSRRRDYYDRGYDRGYDDRDYYSRSYRGGGGGGGGWRAAQDRDQIYRRRSPSPYYSRGGYRSRSRSRSYSPRRY
B5: CIRBP: host protein, UniProt Q14011 (protein, UniProt Q14011 1-172, looked up)
Cold-inducible RNA-binding …: MASDEGKLFVGGLSFDTNEQSLEQVFSKYGQISEVVVVKDRETQRSRGFGFVTFENIDDAKDAMMAMNGKSVDGRQIRVDQAGKSSDNRSRGYRGGSAGGRGFFRGGRGRGRGFSRGGGDRGYGGNRFESRSGGYGGSRDYYSSRSQSGGYSDRSSGGSYRDSYDSYATHNE

The first test relates to HCoV-OC43 gRNA and sgRNA. Format: binding. The following applies: 36 hpi; type n_36_v; tested against no-probe control; FDR<10%.
Consider B1, for which the “target (unweighted spectral count, OC43 Probe II capture)” value was 24.

In the case of B2, the “target (unweighted spectral count, OC43 Probe II capture)” value amounted to 23.

For B3, the “target (unweighted spectral count, OC43 Probe II capture)” value came to 13.

Regarding B4, the “target (unweighted spectral count, OC43 Probe II capture)” value came out at 15.

The same test, now with this note: OC43 Probe II, 12 hpi (type n_12_v), infected cells; tested against no-probe control.
Regarding B2, the “target (unweighted spectral count)” value stood at 4.

For the molecule B4, the “target (unweighted spectral count)” value came to 5.

The same test, now with this note: OC43 Probe II, 24 hpi (type n_24_v), infected cells; tested against no-probe control.
In the case of B1, the “target (unweighted spectral count)” value is on record as 35.

Regarding B2, the “target (unweighted spectral count)” value is 14.

B3: the “target (unweighted spectral count)” value came to 7.

Consider B5, for which the “target (unweighted spectral count)” value is reported as 7.

Still in this test, the particulars now being: type n_48_v; 48 hpi; OC43 Probe II capture on infected cells.
With B1, the “target (unweighted spectral count, OC43 Probe II)” value came out at 37.

With B2, the “target (unweighted spectral count, OC43 Probe II)” value was 31.

Regarding B3, the “target (unweighted spectral count, OC43 Probe II)” value amounted to 22.

Turning to B4, the “target (unweighted spectral count, OC43 Probe II)” value stood at 12.

For the molecule B5, the “target (unweighted spectral count, OC43 Probe II)” value was found to be 12.

The same test, now with this note: type n_48_v; 48 hpi; no-probe control on infected cells.
As for B1, the “background (unweighted spectral count, no-probe control)” value was determined as 1.

With B2, the “background (unweighted spectral count, no-probe control)” value was 3.

As for B3, the “background (unweighted spectral count, no-probe control)” value is recorded as 1.

As for B4, the “background (unweighted spectral count, no-probe control)” value stood at 2.

As for B5, the “background (unweighted spectral count, no-probe control)” value is on record as 1.

The test is the same for the next values; noted with them: type s_36_m; HCoV-OC43-infected HCT-8 cells, 36 hpi, Probe II.
On to B1, for which the “target (spectral count)” value was 24.

Regarding B2, the “target (spectral count)” value is on record as 23.

On to B3, for which the “target (spectral count)” value was 13.

Consider B4, for which the “target (spectral count)” value amounted to 15.

Consider B5, for which the “target (spectral count)” value was 13.

Still in this test, the particulars now being: type s_36_m; uninfected-probe control, 36 hpi, Probe II.
For the molecule B1, the “background (spectral count)” value is 1.

Regarding B2, the “background (spectral count)” value is given as 4.

Consider B3, for which the “background (spectral count)” value was 2.

In the case of B4, the “background (spectral count)” value was 2.

Consider B5, for which the “background (spectral count)” value is 2.

The next test deals with gRNA of HCoV-OC43. Format: binding. The following applies: type g_36_m; HCoV-OC43-infected HCT-8 cells, 36 hpi, Probe I.
Turning to B1, the “target (spectral count)” value turned out to be 26.

On to B2, for which the “target (spectral count)” value amounted to 28.

On to B3, for which the “target (spectral count)” value was found to be 11.

The same test, now with this note: type g_36_m; uninfected-probe control, 36 hpi, Probe I.
Regarding B1, the “background (spectral count)” value is 1.

For the molecule B2, the “background (spectral count)” value is given as 6.

As for B3, the “background (spectral count)” value is reported as 1.

Staying with this test, now noted: type n_48_v: 48 hours post-infection, infected cells, OC43 Probe I; unweighted spectral count.
In the case of B1, the “target (spectral count, OC43 Probe I RNP capture)” value came out at 25.

With B2, the “target (spectral count, OC43 Probe I RNP capture)” value is 36.

For B3, the “target (spectral count, OC43 Probe I RNP capture)” value was 18.

As to B4, the “target (spectral count, OC43 Probe I RNP capture)” value is listed as 10.

Turning to B5, the “target (spectral count, OC43 Probe I RNP capture)” value worked out at 9.

The test is the same for the next values; noted with them: type n_48_v: 48 hours post-infection, no-probe control on infected cells.
As for B1, the “background (spectral count, no-probe control)” value turned out to be 1.

In the case of B2, the “background (spectral count, no-probe control)” value was 3.

With B3, the “background (spectral count, no-probe control)” value worked out at 1.

Turning to B4, the “background (spectral count, no-probe control)” value came out at 2.

Consider B5, for which the “background (spectral count, no-probe control)” value is given as 1.

In the next test the test system is SARS-CoV-2 gRNA and sgRNAs. Type of test: binding.
Settings: not given
Regarding B1, the “enrichment in SARS-CoV-2 Probe II RNP capture” value is listed as “found in the SARS-CoV-2 experiments”.

On to B2, for which the “enrichment in SARS-CoV-2 Probe II RNP capture” value was “found in the SARS-CoV-2 experiments”.

The test is the same for the next values; noted with them: Probe II capture; […]; LC-MS/MS LFQ.
For the molecule B3, the “target (unweighted spectral count in RNP capture)” value was determined as 11.

With B4, the “target (unweighted spectral count in RNP capture)” value turned out to be 8.

Turning to B5, the “target (unweighted spectral count in RNP capture)” value came out at 15.

The same test, now with this note: no-probe control pull-down, used as background for Probe II.
Consider B1, for which the “background (unweighted spectral count in control)” value was 1.

In the case of B2, the “background (unweighted spectral count in control)” value amounted to 1.

Regarding B3, the “background (unweighted spectral count in control)” value turned out to be 1.

Turning to B4, the “background (unweighted spectral count in control)” value came to 1.

B5: the “background (unweighted spectral count in control)” value is 1.

A further test has as its system SARS-CoV-2 gRNA. Format: binding.
Settings: not given
Take B1: the “enrichment in SARS-CoV-2 Probe I RNP capture” value is recorded as “found in the SARS-CoV-2 experiments”.

On to B2, for which the “enrichment in SARS-CoV-2 Probe I RNP capture” value is “found in the SARS-CoV-2 experiments”.

The same test, now with this note: […]; LC-MS/MS; Probe I sample (first 199 lines of Table 2).
In the case of B1, the “target (unweighted spectral count of the protein in the RNP capture)” value came out at 16.

For the molecule B3, the “target (unweighted spectral count of the protein in the RNP capture)” value amounted to 13.

Regarding B4, the “target (unweighted spectral count of the protein in the RNP capture)” value is reported as 13.

Consider B5, for which the “target (unweighted spectral count of the protein in the RNP capture)” value stood at 12.
